Experimental findings from patent US20110262929A1 (FORERUNNER PHARMA RESEARCH, published 2011) are described below.

In assay [1] the target is T1, C-terminal V5 tagged mouse HS6ST2 (mHS6ST2_ctV5), expressed in CHO DG44 cells (mouse, UniProt Q80UW0 148-612).
T1 construct: also called mHS6ST2_ctV5_CHO; mouse HS6ST2 transcript variant 2
T1 sequence: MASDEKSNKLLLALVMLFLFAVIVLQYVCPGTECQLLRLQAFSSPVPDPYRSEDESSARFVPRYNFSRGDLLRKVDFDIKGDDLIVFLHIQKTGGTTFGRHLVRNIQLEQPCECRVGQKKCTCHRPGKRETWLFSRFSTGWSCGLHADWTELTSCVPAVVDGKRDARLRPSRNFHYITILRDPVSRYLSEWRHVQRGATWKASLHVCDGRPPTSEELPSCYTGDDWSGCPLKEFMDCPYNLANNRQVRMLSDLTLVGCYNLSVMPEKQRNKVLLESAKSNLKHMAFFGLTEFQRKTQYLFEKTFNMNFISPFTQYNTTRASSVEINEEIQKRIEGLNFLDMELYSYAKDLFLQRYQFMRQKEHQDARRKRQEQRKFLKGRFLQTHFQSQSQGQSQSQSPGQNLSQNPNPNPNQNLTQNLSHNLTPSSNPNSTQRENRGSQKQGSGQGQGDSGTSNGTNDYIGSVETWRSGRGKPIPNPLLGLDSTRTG
The experiment in a line: flow cytometry on mHS6ST2_ctV5_CHO cells. The protocol:
(§1) Binding of the anti-HS6ST2 antibodies prepared in Example 2 to mHS6ST2 was evaluated by flow cytometry. The cells used were mHS6ST2_ctV5_CHO, HS6ST2_N-short_ctV5_CHO as a positive control, and the CHO DG44 cell line as a negative control.
(§2) Each anti-HS6ST2 antibody or mouse IgG1 (mIgG1, BD Biosciences Pharmingen) as a negative control was added to a final concentration of 2 μg/mL into 96-well U-bottom plates (Becton Dickinson) containing 5×10⁴ cells suspended in PBS (FACS buffer) supplemented with 0.5% bovine serum albumin and 0.1% NaN₃. After reaction on ice for 1 hour, the cells were washed with FACS buffer. Then, an FITC-labeled anti-mouse antibody (Goat F(ab′)₂ Fragment Anti-mouse IgG (H+L)-FITC, Beckman Coulter) was added as a secondary antibody, and the mixture was reacted on ice for 1 hour. The cells were washed with FACS buffer, and then suspended in FACS buffer containing 10 μg/mL propidium iodide (PI) (Sigma) and assayed by a flow cytometer (FACS Calibur, Becton Dickinson). The assay data were analyzed by CELLQuest software (Becton Dickinson), and the geo-mean of FITC fluorescent intensity was calculated for the PI-negative population of viable cells.

The target in the next assay is T2, GST_HS6ST2_C2 (human, UniProt Q96MM7 525-605).
T2 construct: Expressed in E. coli BL21 (DE3); whole cell lysate blotted after SDS-PAGE; also called GST fusion of amino acids 379-459 of HS6ST2_N-short; not shown: N-terminal glutathione S-transferase (GST) of vector pGEX-6P-1, with the vector's linker
T2 sequence: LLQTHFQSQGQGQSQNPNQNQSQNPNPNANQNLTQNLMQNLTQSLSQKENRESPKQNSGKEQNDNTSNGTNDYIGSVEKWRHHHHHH
The experiment in a line: Western blot of E. coli whole cell lysate, antibody 10 µg/mL. As to the method: (§3) GST_HS6ST2_N, GST_HS6ST2_mid, GST_HS6ST2_C, GST_HS6ST2_C1 and GST_HS6ST2_C2 were expressed in BL21 (DE3) Competent Cells (Takara Bio), and the whole cell lysates were resolved by SDS-PAGE electrophoresis and then transferred to PVDF membranes (Immobilon-P, Millipore) and Western blotted with the anti-HS6ST2 antibodies. The anti-HS6ST2 antibodies were used at 10 μg/mL, while the secondary antibody (HRP-anti mIgG, GE Healthcare) was used as a 3000-fold dilution, and blots were detected with ECL Western Blotting Detection Reagents (GE Healthcare). As a result, the anti-HS6ST2 antibodies A1, A10, B5, B6 and C8 bound to GST_HS6ST2_C2, A6 bound to GST_HS6ST2_C1, and C10 bound to GST_HS6ST2_N.
Background: Immunoblotting shows a protein as a band on a membrane.

Assay [2] deals with T3, C-terminal V5 tagged HS6ST2_N-short (HS6ST2_N-short_ctV5), expressed in CHO DG44 cells (human, UniProt Q96MM7 147-605).
T3 construct: also called Q96MM7-2
T3 sequence: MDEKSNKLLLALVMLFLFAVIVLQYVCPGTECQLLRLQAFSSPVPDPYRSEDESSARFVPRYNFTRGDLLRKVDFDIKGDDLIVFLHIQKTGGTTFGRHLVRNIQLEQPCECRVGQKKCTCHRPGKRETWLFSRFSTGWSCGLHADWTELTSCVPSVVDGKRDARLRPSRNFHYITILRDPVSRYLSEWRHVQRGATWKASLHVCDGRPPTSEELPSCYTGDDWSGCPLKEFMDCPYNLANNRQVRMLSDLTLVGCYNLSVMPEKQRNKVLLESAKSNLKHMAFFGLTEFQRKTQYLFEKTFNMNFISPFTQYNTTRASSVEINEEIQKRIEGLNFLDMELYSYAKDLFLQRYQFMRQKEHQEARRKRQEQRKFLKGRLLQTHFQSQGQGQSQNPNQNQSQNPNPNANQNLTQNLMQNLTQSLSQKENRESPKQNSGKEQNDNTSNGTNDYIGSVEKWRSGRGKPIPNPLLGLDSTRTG
The experiment in a line: flow cytometry on HS6ST2_N-short_ctV5_CHO cells, antibody 2 µg/mL. The protocol:
as §1, §2
For orientation: Flow cytometry measures light scatter and fluorescence of single cells or particles in a stream.

Assay [3] concerns the target T4, C-terminal V5 tagged HS6ST2_N-long (HS6ST2_N-long_ctV5), expressed in CHO DG44 cells (human, UniProt Q96MM7 1-605).
T4 construct: On cells in flow cytometry; also called Q96MM7-1
T4 sequence: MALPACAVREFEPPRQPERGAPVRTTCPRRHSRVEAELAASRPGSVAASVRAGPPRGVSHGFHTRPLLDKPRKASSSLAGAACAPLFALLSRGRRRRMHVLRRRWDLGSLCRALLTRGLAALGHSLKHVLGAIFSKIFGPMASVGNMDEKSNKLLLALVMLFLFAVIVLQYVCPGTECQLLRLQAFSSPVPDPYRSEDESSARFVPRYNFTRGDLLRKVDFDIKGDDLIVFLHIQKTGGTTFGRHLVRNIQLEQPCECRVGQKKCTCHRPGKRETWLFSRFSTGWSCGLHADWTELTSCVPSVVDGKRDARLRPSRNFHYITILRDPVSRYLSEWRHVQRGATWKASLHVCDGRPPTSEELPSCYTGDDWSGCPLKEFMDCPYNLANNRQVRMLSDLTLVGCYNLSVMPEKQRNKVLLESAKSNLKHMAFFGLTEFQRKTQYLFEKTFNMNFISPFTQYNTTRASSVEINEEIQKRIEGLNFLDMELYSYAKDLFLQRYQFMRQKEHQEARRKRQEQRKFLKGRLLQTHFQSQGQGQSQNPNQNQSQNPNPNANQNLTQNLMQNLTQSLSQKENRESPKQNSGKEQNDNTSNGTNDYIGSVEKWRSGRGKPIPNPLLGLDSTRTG
The experiment in a line: flow cytometry on HS6ST2_N-long_ctV5_CHO cells. The protocol: as §2
Binding activity of the anti-HS6ST2 antibodies prepared in Example 2 to HS6ST2_N-long was evaluated by flow cytometry. The cells used were HS6ST2_N-long_ctV5_CHO cells and HS6ST2_N-short_{—} ctV5_CHO cells as a positive control, and evaluated in the same manner as in Example 3. The primary antibodies were used at a concentration of 10 μg/mL.

For assay [4], the target named is T1, C-terminal V5 tagged mouse HS6ST2 …. The experiment in a line: flow cytometry on mHS6ST2_ctV5_CHO cells, antibody 2 µg/mL. As to the method:
as §1, §2

The next assay deals with T5, GST_HS6ST2_N (human, UniProt Q96MM7 170-321).
T5 construct: Expressed in E. coli BL21 (DE3); whole cell lysate blotted after SDS-PAGE; also called GST fusion of amino acids 24-175 of HS6ST2_N-short; not shown: N-terminal glutathione S-transferase (GST) of vector pGEX-6P-1, with the vector's linker
T5 sequence: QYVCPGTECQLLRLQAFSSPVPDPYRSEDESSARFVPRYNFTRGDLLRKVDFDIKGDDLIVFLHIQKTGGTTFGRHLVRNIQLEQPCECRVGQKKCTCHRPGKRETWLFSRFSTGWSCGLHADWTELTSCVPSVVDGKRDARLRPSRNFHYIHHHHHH
Briefly: Western blot of E. coli whole cell lysate, antibody 10 µg/mL. The protocol:
as §3

B1: anti-HS6ST2 antibody A10 (antibody, mouse IgG1, V domains shown)
VH: EVQLQQSGAELVKPGASVKLSCTASGFNIKDTYMHWVKQRPEQGLEWIGRIDPANGNTKFDPKFQGKASITADTSSNTAYLQLSSLTSEDTAVYYCATNLLRAMDYWGQGTSVTVSS
VL: DIVMSQSPSSLTVSVGEKVTMSCKSSQSLLYSSNQKNYLAWCQQIPGQSPKLLIYWASTRESGVPDRFAGSGSGTDFTLTISSVKAEDLAVYYCLQYFTYPFTFGSGTKLEIK
notes: also called clone A10
B1: the binding result in assay [1] is given as “no binding (tested: 2 µg/mL)”; in the assay with GST_HS6ST2_C2, “binds”; in assay [2], “binds”; in assay [3], “binds”.

B2: anti-HS6ST2 antibody C10 (antibody, mouse IgG1, V domains shown)
VH: QVQLHQPGSVLVRPGASVKLSCKASGYTFTDSWMHWAKQRPGQGLEWIGEIRPNSGKTNYNEKFKGKATLTVDTSSSTAYVDLRSLTSEDSAVYYCVRTYMSHFDYWGQGTTLTVSS
VL: DIVMTQAAFSNPVTLGTSASISCRSSKSLLHSNGITYLYWYLQKPGQSPQLLIYQMSNLAPGVPDRVSSSGSGSDFTLRISRVEAEDVGVYYCAQNLELPFTFGSGTRLEIK
notes: also called clone C10
In the case of B2, the binding result (in assay [4]; with GST_HS6ST2_N; in assay [2]; in assay [3]) was “binds” in each case.

B3: anti-HS6ST2 antibody B5 (antibody, mouse IgG1, V domains shown)
VH: EVKLVESGGGLVKSGGSLKLSCVVSGFTFSRYAMSWVRQTPEKRLEWVASIVSGDKTYYPDSVKGRFTISRDNARNILYLQMSSLRSEDTAMYYCTRELGYFDVWGAGTTVTVSS
VL: DVVMTQTPLSLPVSLGDQASISCRSSQSLVHSNGNTYLHWYLQKPGQSPKLLIYKVSNRFSGVPDRFSGSGSGTDFTLKISRVEAEDLGVYFCSQSIHVPPLTFGAGTKLELK
notes: also called clone B5; B5-biotin
On to B3, for which the binding result in assay [1] was “no binding (tested: 2 µg/mL)”; with GST_HS6ST2_C2, “binds”; in assay [2], “binds”; in assay [3], “binds”.

B4: anti-HS6ST2 antibody B6 (antibody, mouse IgG1, V domains shown)
VH: EVQLQQSGAELVRSGASVKLSCTASGFNIKDYYMHWVKQRPEQGLEWIGWIDPDNGDTEYAPKFQGKATMTADTSSNTAYLQLSSLTSEDTAVYYCNAGNGNYWFAYWGQGTLVTVSA
VL: DVVMTQTPLSLPVSLGDQASISCRSSQSLVHSNGNTYLHWNLQKPGQSPKLLIYKVSNRFSGVPDRFSGSGSGTDFTLKISRVEAEDLGVYFCSQTTLVPYTFGGGTKLEIK
notes: also called clone B6
On to B4, for which the binding result in assay [1] is listed as “no binding (tested: 2 µg/mL)”; with GST_HS6ST2_C2, “binds”; in assay [2] it was “binds”; in assay [3], “binds”.
